Experimental data taken from the supplement of paper PMC7877785.
± gives the uncertainty stated by the source.

Assay: self-splicing fitness, log relative to wild type (ln ratio); higher = more splicing; Tetrahymena group I intron in knt gene, E. coli kanamycin selection, DiMSum; sequences stand for … in CUCUCU…GGAGGGAAAAGUUAUCAGGCAUGCACCUGGUAGCUAGUCUUUAAACCAAUAGAUUGCAUCGGUUUAAAAGGCAAGACCGUCAAAUUGCGGGAAAGGGGUCAACAGCCGUUCAGUACCAAGUCUCAGGGGAAACUUUGAGAUGGCCUUGCAAAGGGUAUGGUAAUAAGCUGACGGACAUGGUCCUAACCACGCAGCCAAGUCCUAAGUCAACAGAUCUUCUGUUGAUAUGGAUGCAGUUCACAGACUAAAUGUCGGUCGGGGAAGAUGUAUUCUUCUCAUAAGAUAUAGUCGGACCUCUCCUUAAUGGGAGCUAGCGGAUGAAGUGAUGCAACACUGGAGCCGCUGGGAACUAAUUUGUAUGCGAAAGUAUAUUGAUUAGUUUUGGAGUACUCGUGGUCG
Summary of the method: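 Six replicate transformations of E. coli BL21(DE3) with a pET-22b(+) library were grown overnight at 37°C or 30°C. The library randomised all eight P1ex-region intron nucleotides, the intron lying in the knt kanamycin-resistance gene, and plates were LB agar with or without 25 μg/mL kanamycin plus 100 μg/mL carbenicillin, 50 μM IPTG and 0.2% rhamnose. Pooled colonies were amplicon-sequenced on an Illumina HiSeq 2500, and fitness is the DiMSum error-weighted combination of wild-type-normalised replicate fold changes, kanamycin versus none.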

Row | Sequence | self-splicing fitness (ln) (30 °C) | self-splicing fitness (ln) (37 °C)
1 | AUAGAGCAAUAUUACGCCAU | -2.25 ± 0.18 | -1.66 ± 0.27
2 | AGAUAGCAAUAUUACGGAAU | -2.07 ± 0.15 | -0.731 ± 0.14
3 | GUUUAGCAAUAUUACGAUGC | -0.832 ± 0.089 | 0.32 ± 0.12
4 | CUUGAGCAAUAUUACGUGCC | -2.26 ± 0.17 | -2.75 ± 0.38
5 | CUACAGCAAUAUUACGGCAC | -3.29 ± 0.23 | -2.45 ± 0.32
6 | ACUUAGCAAUAUUACGCUAG | -2.35 ± 0.11 | -1.72 ± 0.12
7 | GUACAGCAAUAUUACGAUCU | -0.934 ± 0.087 | -0.527 ± 0.094
8 | ACGAAGCAAUAUUACGGGGA | -2.81 ± 0.21 | -1.57 ± 0.16
9 | AUUUAGCAAUAUUACGGGGG | -2.97 ± 0.42 | -2.81 ± 0.47
10 | CAAGAGCAAUAUUACGGUGC | -3.03 ± 0.31 | -2.09 ± 0.35
11 | AUCUAGCAAUAUUACGACGG | -2.58 ± 0.33 | -2.23 ± 0.42
12 | ACCCAGCAAUAUUACGCGUA | -0.599 ± 0.07 | -1.08 ± 0.062
13 | CAAGAGCAAUAUUACGACGU | -2.88 ± 0.23 | 
14 | UAAGAGCAAUAUUACGAUUU | -2.44 ± 0.17 | -0.0704 ± 0.12
15 | UUAAAGCAAUAUUACGCGCU | -0.179 ± 0.1 | -0.107 ± 0.11
16 | CCUCAGCAAUAUUACGUCAG | -2.92 ± 0.097 | -1.73 ± 0.1
17 | GAGGAGCAAUAUUACGUGGU | -4.05 ± 0.34 | -2.77 ± 0.33
18 | CAGAAGCAAUAUUACGGCGC | -3.28 ± 0.32 | -1.6 ± 0.31
19 | GGCCAGCAAUAUUACGGUGG | -2.52 ± 0.14 | -1.85 ± 0.14
20 | GAGUAGCAAUAUUACGGGCA | -1.18 ± 0.22 | -1.05 ± 0.19
21 | CCAAAGCAAUAUUACGUAGU | -3.67 ± 0.15 | -3.14 ± 0.14
22 | GAUUAGCAAUAUUACGAUGG | -3.28 ± 0.15 | -1.17 ± 0.12
23 | GCAGAGCAAUAUUACGUAAA | -2.76 ± 0.19 | -3.33 ± 0.42
24 | AUUCAGCAAUAUUACGGGAA | -1.36 ± 0.12 | -0.871 ± 0.13
25 | GUAAAGCAAUAUUACGAGAC | -2.46 ± 0.22 | -1.08 ± 0.29

Row | Sequence | self-splicing fitness (ln) (30 °C) | self-splicing fitness (ln) (37 °C)
26 | AACCAGCAAUAUUACGGACU | -0.113 ± 0.061 | 0.226 ± 0.082
27 | UCCAAGCAAUAUUACGUUGG | -2.99 ± 0.11 | -1.89 ± 0.14
28 | GGACAGCAAUAUUACGGGCG | -0.664 ± 0.075 | -0.0669 ± 0.09
29 | GCAUAGCAAUAUUACGUGUA | -2.43 ± 0.13 | -0.881 ± 0.084
30 | UGCCAGCAAUAUUACGAUAA | -1.88 ± 0.14 | -1.19 ± 0.15
31 | AAGUAGCAAUAUUACGGAAG | -2.96 ± 0.19 | -2.44 ± 0.37
32 | UUUAAGCAAUAUUACGAGCC | -1.83 ± 0.36 | 
33 | GUGUAGCAAUAUUACGAAAG | -2.33 ± 0.24 | -1.4 ± 0.42
34 | CGUCAGCAAUAUUACGUGGA | -3.65 ± 0.24 | -0.946 ± 0.17
35 | GGCAAGCAAUAUUACGCAUU | -0.374 ± 0.062 | 0.591 ± 0.081
36 | GUCGAGCAAUAUUACGCGAU | -3.36 ± 0.27 | 
37 | GAGGAGCAAUAUUACGAGAG | -2.77 ± 0.32 | -2.76 ± 0.41
38 | CUGAAGCAAUAUUACGCACG | -0.222 ± 0.072 | -1.34 ± 0.08
39 | CGAGAGCAAUAUUACGAACA | -2.54 ± 0.3 | -2.84 ± 0.41
40 | UAACAGCAAUAUUACGAAUG | -0.844 ± 0.085 | -0.788 ± 0.098
41 | GGCCAGCAAUAUUACGUUGU | -0.721 ± 0.072 | -0.537 ± 0.1
42 | UUUCAGCAAUAUUACGCAGG | -2.53 ± 0.18 | -1.65 ± 0.23
43 | ACAUAGCAAUAUUACGCAUC | -3.98 ± 0.34 | -1.3 ± 0.14
44 | GUCCAGCAAUAUUACGAGGU | -2.34 ± 0.11 | -1.34 ± 0.13
45 | ACGGAGCAAUAUUACGACAC | -4.35 ± 0.42 | -1.94 ± 0.37
46 | ACUUAGCAAUAUUACGGCGC | -0.406 ± 0.11 | 0.119 ± 0.15
47 | UCACAGCAAUAUUACGGUUC | -2.91 ± 0.11 | -2.7 ± 0.19
48 | AUCAAGCAAUAUUACGAAUC | -4.76 ± 0.41 | -2.78 ± 0.3
49 | UAGUAGCAAUAUUACGGGAU | -3.3 ± 0.23 | -1.97 ± 0.18
50 | CUACAGCAAUAUUACGGUAA | -0.706 ± 0.066 | -0.344 ± 0.076

Row | Sequence | self-splicing fitness (ln) (30 °C) | self-splicing fitness (ln) (37 °C)
51 | GAGUAGCAAUAUUACGGAGG | -3.45 ± 0.36 | -0.837 ± 0.36
52 | CCCAAGCAAUAUUACGCGAA | -3.55 ± 0.15 | -2.63 ± 0.17
53 | ACCUAGCAAUAUUACGGGUA | -1.76 ± 0.12 | -1.19 ± 0.088
54 | ACUCAGCAAUAUUACGCCCG | -1.62 ± 0.14 | -0.599 ± 0.18
55 | AUUAAGCAAUAUUACGAGCG | -0.827 ± 0.1 | -0.58 ± 0.13
56 | UUAGAGCAAUAUUACGCGCA | -0.808 ± 0.12 | -0.112 ± 0.16
57 | UUGAAGCAAUAUUACGGGGC | -3.3 ± 0.2 | -2.74 ± 0.3
58 | UUGCAGCAAUAUUACGUUCA | -0.896 ± 0.12 | 0.241 ± 0.12
59 | AGGCAGCAAUAUUACGGGUG | -3.64 ± 0.15 | -2.29 ± 0.12
60 | AUAUAGCAAUAUUACGCAUG | -1.66 ± 0.12 | -0.477 ± 0.14
61 | AAAUAGCAAUAUUACGAGCU | -1.37 ± 0.12 | -0.386 ± 0.13
62 | CUAUAGCAAUAUUACGAUAA | -1.1 ± 0.11 | -0.839 ± 0.17
63 | CCGUAGCAAUAUUACGGGCU | -2.94 ± 0.16 | -2.27 ± 0.21
64 | CCCGAGCAAUAUUACGGUUC | -3.62 ± 0.2 | -1.98 ± 0.2
65 | AAACAGCAAUAUUACGGGGU | -3.07 ± 0.11 | -2.6 ± 0.14
66 | AAACAGCAAUAUUACGCUAU | -1.87 ± 0.1 | -2.23 ± 0.16
67 | CAGCAGCAAUAUUACGUUUC | -3.76 ± 0.17 | -2.53 ± 0.2
68 | UCGAAGCAAUAUUACGCUGG | -1.85 ± 0.13 | -2.04 ± 0.16
69 | CGGAAGCAAUAUUACGACAU | -3.637 ± 0.026 | -2.32 ± 0.038
70 | GGCAAGCAAUAUUACGCAAA | -0.878 ± 0.092 | -1.2 ± 0.097
71 | UCUAAGCAAUAUUACGAUAC | -2.38 ± 0.25 | -2.95 ± 0.47
72 | CUACAGCAAUAUUACGGUCU | -4.27 ± 0.19 | -2.13 ± 0.16
73 | CUCCAGCAAUAUUACGGUUU | -2.02 ± 0.11 | -2.39 ± 0.19
74 | CUGAAGCAAUAUUACGGAGA | -3.62 ± 0.38 | -1.97 ± 0.32
75 | UUUUAGCAAUAUUACGCUUA | -1.1 ± 0.16 | -0.69 ± 0.15

Row | Sequence | self-splicing fitness (ln) (30 °C) | self-splicing fitness (ln) (37 °C)
76 | CAGCAGCAAUAUUACGAACA | -2.72 ± 0.38 | -2.17 ± 0.32
77 | CUACAGCAAUAUUACGAGCU | -3.01 ± 0.21 | -2.19 ± 0.19
78 | AUAAAGCAAUAUUACGCUGU | -0.921 ± 0.09 | -0.246 ± 0.1
79 | UAUUAGCAAUAUUACGAUAG | -0.949 ± 0.16 | -0.79 ± 0.17
80 | CGUUAGCAAUAUUACGAACG | -2.85 ± 0.3 | -2.62 ± 0.38
81 | UCUAAGCAAUAUUACGGACG | -3.16 ± 0.22 | -1.95 ± 0.28
82 | CGGCAGCAAUAUUACGGGCG | -1.85 ± 0.13 | -0.898 ± 0.14
83 | CAACAGCAAUAUUACGCACU | -2.34 ± 0.14 | -0.357 ± 0.12
84 | UUGUAGCAAUAUUACGAUCC |  | -0.641 ± 0.37
85 | CAAAAGCAAUAUUACGUGAC | -5 ± 0.36 | -2.47 ± 0.18
86 | AGUCAGCAAUAUUACGCCCU | -1.1 ± 0.24 | -0.315 ± 0.3
87 | GCUCAGCAAUAUUACGGAGU | -4.36 ± 0.29 | -3.35 ± 0.32
88 | UUCGAGCAAUAUUACGGCCA |  | -0.028 ± 0.31
89 | ACAUAGCAAUAUUACGACGA | -0.942 ± 0.068 | -0.294 ± 0.078
90 | CAAUAGCAAUAUUACGGAGC | -2.48 ± 0.22 | -2.53 ± 0.45
91 | GCGUAGCAAUAUUACGCAUA | -3.49 ± 0.2 | -2.17 ± 0.21
92 | CACUAGCAAUAUUACGGUCG | -0.198 ± 0.072 | 0.007 ± 0.085
93 | UCCAAGCAAUAUUACGUCAC | -3.72 ± 0.39 | -3.28 ± 0.43
94 | AAAUAGCAAUAUUACGAUAU | -1.21 ± 0.13 | -0.352 ± 0.16
95 | CAGGAGCAAUAUUACGAUGC |  | -2.83 ± 0.26
96 | AAAAAGCAAUAUUACGCUGG | -1.73 ± 0.11 | -0.618 ± 0.13
97 | CGUGAGCAAUAUUACGUUUC | -3.19 ± 0.23 | -2.23 ± 0.19
